Legend:
[1] = target: T1, human CD19 (on Raji cells, CD19+ homo sapiens Burkitt's lymphoma) (human, UniProt P15391 20-556); test: flow cytometry titration on Raji cells, anti-His FITC; scFv at log(nM) 0.137273
T1 construct: whole, on cells; also called B-lymphocyte antigen CD19; B4
T1 sequence (looked up): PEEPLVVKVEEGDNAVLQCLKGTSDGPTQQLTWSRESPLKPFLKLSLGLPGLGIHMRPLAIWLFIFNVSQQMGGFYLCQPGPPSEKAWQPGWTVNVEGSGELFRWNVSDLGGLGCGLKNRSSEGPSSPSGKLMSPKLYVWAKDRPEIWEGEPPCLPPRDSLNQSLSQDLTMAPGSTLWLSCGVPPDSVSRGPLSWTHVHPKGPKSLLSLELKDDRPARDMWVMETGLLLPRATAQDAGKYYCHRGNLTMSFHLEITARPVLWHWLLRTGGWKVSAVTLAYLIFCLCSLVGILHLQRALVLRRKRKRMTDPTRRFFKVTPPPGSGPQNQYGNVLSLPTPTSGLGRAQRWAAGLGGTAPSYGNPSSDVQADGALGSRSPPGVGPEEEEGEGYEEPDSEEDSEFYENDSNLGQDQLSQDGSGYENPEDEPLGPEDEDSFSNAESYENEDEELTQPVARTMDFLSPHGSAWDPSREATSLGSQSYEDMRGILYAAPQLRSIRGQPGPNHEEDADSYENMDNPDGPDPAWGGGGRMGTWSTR
Experimental: (§1) In brief, Raji cells were cultured and harvested by centrifugation. About 3×10⁵ cells per well were washed with PBS twice and incubated in 200 μl of serial dilutions of scFvs for 30 minutes at 4° C. After washing with PBS, secondary antibody (5 μg/ml His Tag antibody [FITC]) was added to the cells and incubated for 30 minutes at 4° C. After washing with PBS, cells were analyzed for binding EC50 by using FACSCalibur™ and FlowJo software.

[2] = target: T1, human CD19 (on Raji cells, CD19+ homo …); test: flow cytometry titration on Raji cells, anti-His FITC; scFv at log(nM) 2.045758
Experimental: as §1

[3] = target: T1, human CD19 (on Raji cells, CD19+ homo …); test: flow cytometry titration on Raji cells, anti-His FITC; scFv at log(nM) 2.522879
Experimental: as §1

[4] = target: T1, human CD19 (on Raji cells, CD19+ homo …); test: flow cytometry titration on Raji cells, anti-His FITC; scFv at log(nM) 1.091515
Experimental: as §1

[5] = target: T1, human CD19 (on Raji cells, CD19+ homo …); test: flow cytometry titration on Raji cells, anti-His FITC; scFv at log(nM) 0.614394
Experimental: as §1

[6] = target: T1, human CD19 (on Raji cells, CD19+ homo …); test: flow cytometry titration on Raji cells, anti-His FITC; scFv at log(nM) 3
Experimental: as §1

[7] = target: T1, human CD19 (on Raji cells, CD19+ homo …); test: flow cytometry titration on Raji cells, anti-His FITC
Experimental: as §1

[8] = target: T1, human CD19 (on Raji cells, CD19+ homo …); test: flow cytometry titration on Raji cells, anti-His FITC; scFv at log(nM) 1.568636
Experimental: as §1

[9] = target: T1, human CD19 (on Raji cells, CD19+ homo …); test: flow cytometry titration on Raji cells, anti-His FITC; scFv at log(nM) 3.477121
Experimental: as §1

| Binder | geometric mean (FACS titration) [1] | geometric mean (FACS titration) [2] | geometric mean (FACS titration) [3] | geometric mean (FACS titration) [4] | geometric mean (FACS titration) [5] | geometric mean (FACS titration) [6] | EC50 [7] [nM] | geometric mean (FACS titration) [8] | geometric mean (FACS titration) [9] |
| --- | --- | --- | --- | --- | --- | --- | --- | --- | --- |
| AS-scFv (scFv, leader left out here) scFv: DIQMTQSPSTLSASVGDRVTITCRASQDISKYLNWYQQKPDQAPKLLIKHTSRLHSGVPSRFSGSGSGTDFTFTISSLQPEDIATYYCQQGNTLPYTFGQGTKLEIKGSTSGSGKPGSGEGSTKGQVQLQESGPGLVKPSGTLSLTCAVSGVSLPDYGVSWIRQPPGKGLEWIGVIWGSETTYYNSALKSRVTISRDNSKNTLYLQMNSLRAEDTAVYYCAKHYYYGGSYAMDYWGQGTLVTVSSHHHHHH | 14.2 | 62.4 | 63.9 | 14.5 | 14 | 62.4 | 53.1 | 19.4 | 62.7 |
| SS-scFv (scFv, leader left out here) scFv: DIQMTQSPSFLSASVGDRVTITCRASQDISKYLNWYQQKPDQAPKLLIKHTSRLHSGVPSRFSGSGSGTDFTFTISSLQPEDIATYYCQQGNTLPYTFGQGTKLEIKGSTSGSGKPGSGEGSTKGEVQLVESGGGLVQPGRSLRLSCTASGVSLPDYGVSWVRQPPGKGLEWIGVIWGSETTYYNSALKSRFTISRDNSKNTLYLQMNSLRAEDTAVYYCAKHYYYGGSYAMDYWGQGTLVTVSSHHHHHH | 13.9 | 51.4 | 60.4 | 14.6 | 13.9 | 61.7 | 72.8 | 19.3 | 62 |

Continued, values first:

| geometric mean (FACS titration) [1] | geometric mean (FACS titration) [2] | geometric mean (FACS titration) [3] | geometric mean (FACS titration) [4] | geometric mean (FACS titration) [5] | geometric mean (FACS titration) [6] | EC50 [7] [nM] | geometric mean (FACS titration) [8] | geometric mean (FACS titration) [9] | Binder |
| --- | --- | --- | --- | --- | --- | --- | --- | --- | --- |
| 15.7 | 56.3 | 61.6 | 15.1 | 15.5 | 61.9 | 34 | 41.2 | 60.7 | NS-scFv (scFv, leader left out here) scFv: DIQMTQSPSSLSASVGDRVTITCRASQDISKYLNWYQQKPGKAVKLLIYHTSRLHSGVPSRFSGSGSGTDYTLTISSLQPEDIATYFCQQGNTLPYTFGGGTKLEIKGSTSGSGKPGSGEGSTKGQVQLQESGPGLVKPSETLSVTCTVSGVSLPDYGVSWIRQPPGKGLEWLGVIWGSETTYYNSALKSRLTISKDTSKNQVFLKMSSLTAADTAIYYCAKHYYYGGSYAMDYWGQGTLVTVSSHHHHHH |
| 13.4 | 46.6 | 58.9 | 13.6 | 13.3 | 59.7 | 66 | 25.7 | 60.2 | JS-scFv (scFv, leader left out here) scFv: DIQMTQSPSSLSASVGDRVTITCRASQDISKYLNWYQQKPDQAPKLLIKHTSRLHSGVPSRFSGSGSGTDYTLTISSLQPEDFATYYCQQGNTLPYTFGQGTKLEIKGSTSGSGKPGSGEGSTKGEVQLVESGGGLVQPGRSLRLSCTASGVSLPDYGVSWIRQPPGKGLEWIGVIWGSETTYYNSALKSRFTISRDNSKNTLYLQMNSLRAEDTAVYYCAKHYYYGGSYAMDYWGQGTLVTVSSHHHHHH |

— patent US20180312588A1 (KITE PHARMA, published 2018)
